# From patent US20200123233A1
# Legend:
# [1] = target: recombinant his-tagged HA0 trimer from H5N1 strain A/Anhui/1/2005 (Abcam, Cat. No. ab53938) (influenza A virus A/Anhui/1/2005 (H5N1)); experiment: ELISA on recombinant haemagglutinin, detection with rabbit anti-NANOBODY serum
# [2] = target: recombinant his6-tagged haemagglutinin HA1, Abcam ab53875; experiment: as above
# [3] = target: Recombinant his-tagged HA1 from H7N7 strain A/Chicken/Netherlands/01/03 (Abcam Cat. No. ab61286) (Influenza A virus A/Chicken/Netherlands/01/03 (H7N7))
Binder,ELISA titer (NANOBODY concentration giving extinction 1) [1] [ng/mL],ELISA titer (NANOBODY concentration giving extinction 1) [2] [ng/mL],ELISA titer (NANOBODY concentration giving extinction 1) [3] [ng/mL]
IV157 (VHH) VHH: QVQLQQSGGGLVQPGGSLRLSCAASRSDISFNPMGWYRQAPGKQRELVATISNGGTTNYADSVKGRFTISQDNAKTTVYLQMNSLKPEDTAVYYCNGRGPRYATTGWYTDDYWGQGTQVTVSS,30.6,9.9,–
IV146 (VHH) VHH: QVQLQQSGGGLVQAGGSLRLSCAASGSSFSINAMGWYRQAPGKQRELVAAISSGGSANYADSVKGRFTISRDNAKNTVYLQMNSLKPEDTAVYYCNAGSRFNPFGSAYDYWGQGTQVTVSS,162,62.9,–
IV154 (VHH) VHH: QVQLQESGGGLVQAGGSLRLSCAASGRPFSSAAMGWFRQAPGKEREFVSAISYTGDVTRYADSVKGRFTISRDNTRNTLTLEMNSLKPEDTAVYYCAARTYAGVRAHTYDYDYWGQGTQVTVSS,> 10000,> 10000,–
IV155 (VHH) VHH: QVQLQESGGGLVQAGGSLRLSCAASGRSLSRYAMGWFRQAPGKEREFVATKTSGGVTYYGASVKGRFTISRDNAKNMVYLQMNSLNPEDTAIYYCAAGTDAIFKPWMLPDYWGQGTQVTVSG,> 10000,> 10000,–
IV1 (yeast-produced NANOBODY (VHH sequence)) (VHH) VHH: QVQLQESGGGLVETGGSLRLSCAASGRTFGGYALAWFRQAPGKGREFVAAVTWTSGTTNYAGSVKDRFTVSRDNAGNTMYLQMNSLRPEDTAVYICGAASGYRSPDRLSEPNWVNYWGQGTQVTVSS,–,–,62.2
IV26 (yeast-produced NANOBODY (VHH sequence)) (VHH) VHH: QVQLQESGGGLVRTGDSLRLSCAASGRTFNGYAMAWFRQAPGKGREFVAAVTWSSGTTNYAGSVKDRFTVSRDNANNTMYLQMNSLKPEDTAVYICGAASGYRSTDRLSDPAWTNYWGQGTQVTVSS,–,–,80.6
IV29 (yeast-produced NANOBODY (VHH sequence)) (VHH) VHH: QVQLQESGGGLVQAGGSLRLSCVASGRTLDNYAMGWFRQAPGAEREFVGAISANGEDTQYTESVQGRFTISKDNAKSTVYLDMNSLKPEDTAVYYCAADRKTLTYYTSRLRSRYEYWGQGTQVTVSS,–,–,7.2
IV21 (yeast-produced NANOBODY (VHH sequence)) (VHH) VHH: QVQLQQSGGGLVQAGGFLRLSCAASGRSFNTYAMGWFRQAPGKEREFVAGITRSGTATDYIDSVKGRFTISRDNARDTVYLQMNRLNPEDSAVYYCAAHANYDRMINSEYKYWGQGTQVTVSS,–,–,69
IV37 (yeast-produced NANOBODY (VHH sequence)) (VHH) VHH: QVQLQESGGGLVQAGDSLRLSCAAPGRSFSGGAMSWFRQVPGKEREFVAAIRWSGGGIRYADSVKGRFTISRDNAKNTFYLQMNSLKPEDTAVYYCAIDPRADLVATMTSIRYWGQGTQVTVSS,–,–,31.4
IV5 (yeast-produced NANOBODY (VHH sequence)) (VHH) VHH: QVQLQQSGGGLVQAGGSLRLSCAASGRTFSTTGMGWFRQAPGKEREFVAAFWWTGGQTFYADSVKGRFTISGDNAGNTVDLQMNSLKPEDTAVYACAAMSKPRNLWRTDSYDYWGQGTQVTVSS,–,–,30.7
IV25 (yeast-produced NANOBODY (VHH sequence)) (VHH) VHH: QVQLQQSGGGLVQSGGSLSLSCAASGITLNNRVVGWFRQAPGKEREFVGRIMWSVGDTFYARSVKGRFTISRDNAKNTMYLQMNALKPEDTAVYYCAAARDPDLYTGQYEYWGQGTQVTVSS,–,–,27.8
